Test results published in article PMC9348906 (Science (New York, N.Y.), 2022).
Several values for one entry are separate records, joined by “and”; a condition that tells them apart may be missing. Equal entries are not always repeated. Where two headings read alike, the source gives them in different places.

B1: NUP358^1–832 (domain or fragment, human, UniProt P49792 1-832, looked up)
chain: MRRSKADVERYIASVQGSTPSPRQKSMKGFYFAKLYYEAKEYDLAKKYICTYINVQERDPKAHRFLGLLYELEENTDKAVECYRRSVELNPTQKDLVLKIAELLCKNDVTDGRAKYWLERAAKLFPGSPAIYKLKEQLLDCEGEDGWNKLFDLIQSELYVRPDDVHVNIRLVEVYRSTKRLKDAVAHCHEAERNIALRSSLEWNSCVVQTLKEYLESLQCLESDKSDWRATNTDLLLAYANLMLLTLSTRDVQESRELLQSFDSALQSVKSLGGNDELSATFLEMKGHFYMHAGSLLLKMGQHSSNVQWRALSELAALCYLIAFQVPRPKIKLIKGEAGQNLLEMMACDRLSQSGHMLLNLSRGKQDFLKEIVETFANKSGQSALYDALFSSQSPKDTSFLGSDDIGNIDVREPELEDLTRYDVGAIRAHNGSLQHLTWLGLQWNSLPALPGIRKWLKQLFHHLPHETSRLETNAPESICILDLEVFLLGVVYTSHLQLKEKCNSHHSSYQPLCLPLPVCKQLCTERQKSWWDAVCTLIHRKAVPGNVAKLRLLVQHEINTLRAQEKHGLQPALLVHWAECLQKTGSGLNSFYDQREYIGRSVHYWKKVLPLLKIIKKKNSIPEPIDPLFKHFHSVDIQASEIVEYEEDAHITFAILDAVNGNIEDAVTAFESIKSVVSYWNLALIFHRKAEDIENDALSPEEQEECKNYLRKTRDYLIKIIDDSDSNLSVVKKLPVPLESVKEMLNSVMQELEDYSEGGPLYKNGSLRNADSEIKHSTPSPTRYSLSPSKSYKYSPKTPPRWAEDQNSLLKMICQQVEAIKKEMQELKLNS
B2: NUP358^NTD (domain or fragment, human, UniProt P49792 1-752, looked up)
chain: MRRSKADVERYIASVQGSTPSPRQKSMKGFYFAKLYYEAKEYDLAKKYICTYINVQERDPKAHRFLGLLYELEENTDKAVECYRRSVELNPTQKDLVLKIAELLCKNDVTDGRAKYWLERAAKLFPGSPAIYKLKEQLLDCEGEDGWNKLFDLIQSELYVRPDDVHVNIRLVEVYRSTKRLKDAVAHCHEAERNIALRSSLEWNSCVVQTLKEYLESLQCLESDKSDWRATNTDLLLAYANLMLLTLSTRDVQESRELLQSFDSALQSVKSLGGNDELSATFLEMKGHFYMHAGSLLLKMGQHSSNVQWRALSELAALCYLIAFQVPRPKIKLIKGEAGQNLLEMMACDRLSQSGHMLLNLSRGKQDFLKEIVETFANKSGQSALYDALFSSQSPKDTSFLGSDDIGNIDVREPELEDLTRYDVGAIRAHNGSLQHLTWLGLQWNSLPALPGIRKWLKQLFHHLPHETSRLETNAPESICILDLEVFLLGVVYTSHLQLKEKCNSHHSSYQPLCLPLPVCKQLCTERQKSWWDAVCTLIHRKAVPGNVAKLRLLVQHEINTLRAQEKHGLQPALLVHWAECLQKTGSGLNSFYDQREYIGRSVHYWKKVLPLLKIIKKKNSIPEPIDPLFKHFHSVDIQASEIVEYEEDAHITFAILDAVNGNIEDAVTAFESIKSVVSYWNLALIFHRKAEDIENDALSPEEQEECKNYLRKTRDYLIKIIDDSDSNLSVVKKLPVPLESVKEMLNSVMQE

Legend:
Assay in all cases: SEC-MALS
[1] = molecular target: C. thermophilum coat nup complex (CNC) (C. thermophilum) (UniProt G0S2X1)
[2] = molecular target: the molecule itself
[3] = molecular target: the molecule itself; remark: listed apart in the source

Sequence of C. thermophilum coat nup complex (CNC) (C. thermophilum) (G0S2X1 whole entry, looked up, one chain of several): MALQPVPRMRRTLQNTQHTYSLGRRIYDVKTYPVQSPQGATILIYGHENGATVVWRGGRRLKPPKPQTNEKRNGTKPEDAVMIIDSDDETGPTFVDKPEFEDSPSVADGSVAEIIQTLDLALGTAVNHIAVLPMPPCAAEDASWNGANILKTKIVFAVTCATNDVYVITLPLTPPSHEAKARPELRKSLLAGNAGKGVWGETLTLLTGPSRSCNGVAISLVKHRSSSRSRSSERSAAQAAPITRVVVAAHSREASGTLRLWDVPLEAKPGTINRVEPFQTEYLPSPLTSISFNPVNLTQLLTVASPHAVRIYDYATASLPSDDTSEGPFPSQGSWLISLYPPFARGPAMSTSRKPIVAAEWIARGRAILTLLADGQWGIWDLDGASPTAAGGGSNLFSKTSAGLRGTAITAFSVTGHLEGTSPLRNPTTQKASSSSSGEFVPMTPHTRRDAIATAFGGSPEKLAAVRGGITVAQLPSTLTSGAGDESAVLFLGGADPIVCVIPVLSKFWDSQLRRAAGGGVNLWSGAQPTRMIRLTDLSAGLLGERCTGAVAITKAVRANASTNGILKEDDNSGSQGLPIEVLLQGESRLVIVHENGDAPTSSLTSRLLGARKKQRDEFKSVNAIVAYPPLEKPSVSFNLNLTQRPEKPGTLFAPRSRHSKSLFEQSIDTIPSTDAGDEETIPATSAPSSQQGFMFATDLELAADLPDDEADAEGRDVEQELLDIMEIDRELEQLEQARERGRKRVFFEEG

Row | Molecule | stoichiometry N [2] | also measured
1 | C. thermophilum cytoplasmic filament nup complex (CFNC) (from UniProt G0S4F3 1-882; G0SBS8 1-1481; G0SBQ3 1-678; G0SAK3 1-993) | – | stoichiometry N [1]: 2
2 | RWAEDQNSLLKMICQQVEAIKKEMQELKLNS (domain or fragment, human, UniProt P49792 802-832, looked up) [NUP358^OE] | 2 and 4 | –
3 | B1 | 4 and 5 | –
4 | B2 | – | stoichiometry N [3]: 2
